According to patent US20090191187A1:

Molecular target: human interleukin-1 receptor on cells (MRC-5 human embryonic lung fibroblasts; human blood cells) (human) (UniProt P14778)
Assay: cell-based or functional assay

Sequence of human interleukin-1 receptor on cells (MRC-5 human embryonic lung fibroblasts; human blood cells) (human) (P14778 18-569): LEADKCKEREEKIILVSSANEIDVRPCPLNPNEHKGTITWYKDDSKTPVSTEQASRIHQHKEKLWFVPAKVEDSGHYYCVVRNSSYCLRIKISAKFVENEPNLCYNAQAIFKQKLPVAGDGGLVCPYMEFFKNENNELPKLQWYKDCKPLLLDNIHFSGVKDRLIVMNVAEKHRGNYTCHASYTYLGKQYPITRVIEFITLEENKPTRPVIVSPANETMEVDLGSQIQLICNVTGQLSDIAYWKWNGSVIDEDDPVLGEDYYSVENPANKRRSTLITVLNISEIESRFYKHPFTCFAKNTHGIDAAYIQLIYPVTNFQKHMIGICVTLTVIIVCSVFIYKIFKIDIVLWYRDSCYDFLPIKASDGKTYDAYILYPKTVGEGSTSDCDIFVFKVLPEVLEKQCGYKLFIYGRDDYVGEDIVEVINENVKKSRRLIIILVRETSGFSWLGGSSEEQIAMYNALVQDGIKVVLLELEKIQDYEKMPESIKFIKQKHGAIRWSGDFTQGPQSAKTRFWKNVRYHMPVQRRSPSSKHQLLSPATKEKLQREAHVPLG

Row | Substance | IC-50 (MRC-5 bioassay) [ng/mL]
1 | BD Pharmingen Cat.# 551388, clone HIL1R-M1 (antibody) | > 100
2 | Biotrend Cat.# 0100-0242, clone 49/20 (antibody) | > 100
3 | PBL Biomedical Laboratories Cat.# 21808-1, clone RMH1R-1 (antibody) | 33
4 | PBL Biomedical Laboratories Cat.# 21809-1, clone RMH1R-2 (antibody) | > 100
5 | R&D Systems Cat.# MAB269, clone 35730 (antibody) | > 100

Results, then the substance that gave them:

Row | IC-50 (MRC-5 bioassay) [ng/mL] | Substance
6 | > 100 | Antigenix Cat.# MC260020, clone R11 (antibody)
7 | > 100 | Antigenix Cat.# MC261020, clone R12 (antibody)
8 | > 100 | Cell Sciences Cat.# CM2028, clone RMHL-1 (antibody)
